The term IC50 denotes the concentration needed to halve the response being measured. A low value points to greater potency. By AUC is commonly meant the area under the concentration-time curve, a measure of exposure. A high value points to more exposure.

In data set [1] the test system is human pancreatic cancer cell line BxPC-3. In words: In vitro cytotoxicity test, BxPC3 cells, 6 days. Particulars: BxPC3, 6 days of culture. The data set is classed as cell-based. On the procedure: 10% FBS (SH30406.05, HYCLONE) was added to RPMI 1640 (22400-071, Gibco), and the mixture was mixed well to prepare a BxPC3 cell (ATCC) growth medium. BxPC3 or FaDu cells were adjusted to a concentration of 50000 cells/mL with a growth medium, seeded into a 96-well white-bottom plate (167008, NUNC) at 50 µL per well (2500 cells/well), and incubated overnight in an incubator at 37 °C. The antibody was diluted with growth medium and serially diluted 5-fold from 200 nM (2×) to obtain 9 gradients, with the final concentration being […]. The diluted antibody-drug conjugate or control was added at 50 µL/well, and the total volume was 100 µL. […] The cell pellet was fully lysed by shaking on a plate shaker for 5 min, and the luminescence signal was stabilized by standing at room temperature for 10 min. The culture plate was tested on a microplate reader (spectra MAX i3x, Molecular Divices), the […] were taken, and the cell viability was calculated. […]
The cell proliferation inhibition rate after 6 days of culture was calculated using the following formula.
Cell proliferation inhibition rate (%) = […], where a: the average value of experimental sample-added wells after 6 days of culture; b: the average value of control medium-added wells after 6 days of culture. The data were fitted by GraphPad Prism and the IC50 of the drug was calculated (Table 4).

The nature of data set [2]: ADC in vivo stability assay in mice (serum ELISA for ADC and total antibody). Also noted: species or system Balb/c mice. Particulars: 10 mg/kg via the tail vein. The method, then: • 1. The antibody-drug conjugate was injected into Balb/c mice (Vital River) via the tail vein at a dose of 10 mg/kg, and blood was collected at 0.083 h, 0.5 h, 2 h, 6 h, 24 h, 48 h, 96 h, 168 h, 336 h, and 504 h after administration (FIG. 10A). The blood samples were left to stand at room temperature and centrifuged to collect serum, so as to test the stability of the drug in the mice. • 2. Antibody detection: TROP2 protein (ACRO, cat: TR2-H5223, lot: 2573-2316F1-1B9) was coated and incubated overnight at 4 °C (FIG. 10A). The coating protein solution was removed, and 300 µL of wash buffer (0.05% Tween 20) was added to each well for repeated washing 3 times. 200 µL of blocking solution (5% skim milk powder) was added to each well, and the plate was blocked at room temperature for 2 h. The blocking solution was discarded, and the plate was washed 3 times with 300 µL of wash buffer per well. The diluted standards, quality control samples, and mouse serum samples to be tested were added to the well plate and incubated at room temperature for 2 h. The sample solution was discarded, and 300 µL of wash buffer was added to each well for 3 times of repeated washing. Anti-hFc-HRP (BETHYL, cat:A80-104P, lot: 97) was diluted 20000-fold and added at 100 µL/well, and the plate was incubated at room temperature for 1 h. The liquid was removed, and 300 µL of wash buffer was added to each well for 6 times of repeated washing. 100 µL of TMB substrate (Solarbio, cat:PR1200, lot: 20230418) was added to each well, and the color development was performed at room temperature for 5-10 min in the dark. 50 µL of ELISA stop solution (Beijing Solarbio C1058 20190620) was added to each well, medium-speed shaking for 10 s, within 30 min, the OD values at 450 nm and 620 nm were read on a microplate reader (USA, Thermo Multiskan FC AS-A1-008). • 3. Antibody-drug conjugate ADC detection: an anti-payload antibody 18E7C9 (innovent, lot: 20220424) was coated and incubated at 4 °C overnight (FIG. 10A). The coating protein solution was discarded, and 300 µL of wash buffer (0.05% Tween 20) was added to each well for 3 repeated washes. 200 µL of blocking solution (5% skim milk powder) was added to each well, and the plate was blocked at room temperature for 2 h. The blocking solution was discarded, and the plate was washed 3 times with 300 µL of wash buffer per well. The diluted standards, quality control samples, and mouse serum samples to be tested were added to the well plate and incubated at room temperature for 2 h. The sample solution was discarded, and 300 µL of wash buffer was added to each well for 3 times of repeated washing. Biotinylated TROP2 protein (ACRO, cat: TR2-H82E5, lot:BV3055-91PF1-ZC) was added to the microplate and incubated at room temperature for 2 h. The liquid was removed, and 300 µL of wash buffer was added to each well for 3 times of repeated washing. SA-HRP (Biolegend, cat:405210, lot: B339457) was diluted 20,000-fold and added at 100 µL/well, and the plate was incubated at room temperature for 1 h. The liquid was removed, and 300 µL of wash buffer was added to each well for 6 times of repeated washing. 100 µL of TMB substrate (Solarbio, cat:PR1200, lot: 20230418) was added to each well, and the color development was performed at room temperature for 5-10 min in the dark. 50 µL of ELISA stop solution (Beijing Solarbio C1058 20190620) was added to each well, medium-speed shaking for 10 s, within 30 min, the OD values at 450 nm and 620 nm were read on a microplate reader (USA, Thermo Multiskan FC AS-A1-008).
(In general: In an ELISA, binding on a coated surface is turned into a signal by an enzyme label.)

B1: hTINA1-DXd: control ADC: antibody hTINA1 conjugated with Linker-DXd, average DAR 4.3; TROP2-ADC from Daiichi Sankyo (conjugate, chains of the INN, looked up)
VH: QVQLVQSGAEVKKPGASVKVSCKASGYTFTTAGMQWVRQAPGQGLEWMGWINTHSGVPKYAEDFKGRVTISADTSTSTAYLQLSSLKSEDTAVYYCARSGFGSSYWYFDVWGQGTLVTVSS
VL: DIQMTQSPSSLSASVGDRVTITCKASQDVSTAVAWYQQKPGKAPKLLIYSASYRYTGVPSRFSGSGSGTDFTLTISSLQPEDFAVYYCQQHYITPLTFGQGTKLEIK
modifications: deruxtecan (Linker-DXd), DAR 4.3
notes: control ADC: antibody hTINA1 conjugated with Linker-DXd, average DAR 4.3; TROP2-ADC from Daiichi Sankyo
As for B1, the IC50 in data set [1] came to 0.55 nM. In addition, in data set [2] (Analysis Type ADC), the exposure (AUC) amounted to 12053.60 µg·h/mL, the Cl_obs was 19.9 mL/day/kg and the T-half is recorded as 154.59 h. For the same molecule, in data set [2] (Analysis Type Total-Ab), the AUC is 35805.22 µg·h/mL, the Cl_obs amounted to 6.72 mL/day/kg and the T-half is 374.37 h.

The record behind these values is patent EP4785962A1, “ANTIBODY-DRUG CONJUGATE TARGETING TROP2, AND PREPARATION METHOD AND USE THEREFOR” (priority 2023, dated 2025).
